Key:
[1] = target: ERK5 kinase domain, ERK5-(1–431) (Homo sapiens, UniProt Q13164); assay: Fluorescence polarization; conditions: FP-based binding affinity measurements
ERK2 = ERK2 (Homo sapiens, UniProt P28482); assay: FP-based binding affinity measurements with ERK2, direct titration
Sequence of ERK2 (P28482 whole entry): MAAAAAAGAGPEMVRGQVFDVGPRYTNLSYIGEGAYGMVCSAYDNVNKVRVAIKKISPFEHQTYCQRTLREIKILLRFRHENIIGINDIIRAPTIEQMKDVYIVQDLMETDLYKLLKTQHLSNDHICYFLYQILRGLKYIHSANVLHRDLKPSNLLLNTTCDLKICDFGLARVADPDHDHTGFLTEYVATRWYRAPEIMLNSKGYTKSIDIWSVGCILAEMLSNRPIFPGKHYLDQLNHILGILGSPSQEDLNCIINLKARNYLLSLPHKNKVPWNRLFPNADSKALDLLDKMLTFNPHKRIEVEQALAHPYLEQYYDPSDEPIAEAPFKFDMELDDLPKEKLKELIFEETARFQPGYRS

Sequence of ERK5 kinase domain, ERK5-(1–431) (Q13164 1-431): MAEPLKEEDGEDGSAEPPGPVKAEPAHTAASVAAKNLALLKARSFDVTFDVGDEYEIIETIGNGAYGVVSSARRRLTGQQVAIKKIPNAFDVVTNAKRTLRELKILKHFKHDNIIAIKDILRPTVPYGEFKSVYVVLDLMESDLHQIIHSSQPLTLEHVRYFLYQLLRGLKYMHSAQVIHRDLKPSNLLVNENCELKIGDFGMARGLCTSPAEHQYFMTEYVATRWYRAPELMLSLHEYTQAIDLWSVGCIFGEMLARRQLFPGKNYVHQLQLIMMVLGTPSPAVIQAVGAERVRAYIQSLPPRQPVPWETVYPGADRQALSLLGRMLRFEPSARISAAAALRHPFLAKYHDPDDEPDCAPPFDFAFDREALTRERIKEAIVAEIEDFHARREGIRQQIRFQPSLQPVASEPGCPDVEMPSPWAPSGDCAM

Binding to ERK5 (result in words) [1]: submicromolar affinity | Binding to ERK2 (result in words) (ERK2): did not bind
B1: PB1-D: MKK5 construct (16–130) comprised of the PB1 domain and the linear D-motif (protein, UniProt Q13163 16-130, looked up, fragment)
chain: VLVIRIKIPNSGAVDWTVHSGPQLLFRDVLDVIGQVLPEATTTAFEYEDEDGDRITVRSDEEMKAMLSYYYSTVMEQQVNGQLIEPLQIFPRACKPPGERNIHGLKVNTRAGPSQ
modifications: PB1 domain and D-motif
